# Read-outs that look alike come from different tables or passages of the source.
# T1: Nogo receptor (NgR) (Homo sapiens, UniProt Q9BZR6)
# T1 construct: both cDNAs contained the full-length coding region of the Nogo-66 receptor (NgR); expressed in transfected cells; host or cells: CHO cells stably expressing NgR (COS-7 for the library clones)
# T1 sequence (Q9BZR6 27-473): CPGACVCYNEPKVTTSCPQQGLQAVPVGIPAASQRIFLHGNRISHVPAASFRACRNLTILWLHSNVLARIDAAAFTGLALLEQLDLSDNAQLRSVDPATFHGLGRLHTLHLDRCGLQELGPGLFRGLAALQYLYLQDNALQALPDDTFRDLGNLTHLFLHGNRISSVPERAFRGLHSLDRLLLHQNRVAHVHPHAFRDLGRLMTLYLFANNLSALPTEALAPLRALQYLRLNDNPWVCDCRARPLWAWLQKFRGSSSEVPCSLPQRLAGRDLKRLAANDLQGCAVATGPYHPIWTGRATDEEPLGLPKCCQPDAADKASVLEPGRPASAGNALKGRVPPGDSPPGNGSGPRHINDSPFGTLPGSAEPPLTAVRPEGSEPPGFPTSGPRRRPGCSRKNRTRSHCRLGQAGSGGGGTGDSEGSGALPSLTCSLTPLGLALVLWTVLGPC
# How the values were obtained:
# [1] = tested on: chick E7 retinal ganglion neurons (RGN) expressing human NgR; experiment: Growth cone collapse in E7 retinal ganglion neurons expressing FLAG-NgR (HSV infection); type: cell-based; settings: E7 RGN infected with HSV FLAG-NgR
# From the text: To assess whether NgR is capable of mediating OMgp-induced inhibitory activity on neurite outgrowth, we next took a gain-of-function approach to examine whether expression of NgR was able to confer OMgp-responsiveness to otherwise insensitive neurons. It has been shown previously that chick E7 retinal ganglion neurons (RGN) are insensitive to Nogo-66, but that introduction of exogenous NgR in these neurons rendered their growth cones to be responsive to Nogo-66^9. Using the same strategy, we made a recombinant herpes simplex virus (HSV) that drives expression of a FLAG-tagged full-length human NgR (FLAG-NgR) in infected neurons. Upon infection, 80% of the E7 RGNs expressed the FLAG-NgR protein as assessed by immunocytochemistry with an anti-FLAG antibody. […] Furthermore, the growth cones of NgR-expressing axons also become collapsible by OMgp.
# Growth Cone Collapse and Neurite Outgrowth Assays. […] Infection of HSV-LacZ was detected by a standard b-galatosidase staining protocol^20. FLAG-NgR expression was detected by incubating paraformaldehyde-fixed cultures with M2 anti-FLAG antibody (Sigma). Bound antibody was detected by incubation with AP-conjugated […] IgG second antibody and reaction with NBT and BCIP (Vector labs). Growth cone collapse was quantified only in those positively stained for b-galatosidase or immunoreactive for the FLAG epitope.
# Nogo receptor (NgR) [2] = molecular target: T1, Nogo receptor (NgR); settings: read-out: binding affinity of NgR for Nogo-66; cited from earlier work
# [3] = tested on: growth cones of E13 chick DRG neurons; experiment: Growth cone collapse assay with E13 chick DRG explants; type: cell-based; settings: E13 chick DRG
# From the text: OMgp is a Physiological Nogo Receptor Ligand and Inhibitor of Neurite Outgrowth. To examine whether any GPI-linked proteins in CNS myelin may act as inhibitors of neurite outgrowth, we treated purified bovine white matter myelin with phosphatidylinositol-specific phospholipase C (PI-PLC) and examined the released proteins for their ability to alter growth cone morphology in a growth cone collapse assay using embryonic day 13 chick dorsal root ganglia (E13 DRG)^6,9,10. […] Since the size of this band was similar to that of a previously identified CNS myelin protein OMgp^11,12, we used antibodies specific for OMgp to detect enrichment of cleaved OMgp in the PI-PLC supernatants by Western blot. […] Next, we examined whether purified recombinant OMgp protein was able to act as an inhibitor of neurite outgrowth in two well-established in vitro assays, the growth cone collapse^6,9,13 and the neurite outgrowth assays^3-7,9.
# Growth Cone Collapse and Neurite Outgrowth Assays. Chick E13 DRG and E7 retina were isolated and cultured as described previously^9,10. DRG explants cultured overnight were used for growth cone collapse assays. To assess the effects of PI-PLC treatment, cultures were pre-incubated with 2 U/ml PI-PLC for 30 min prior to treatment with individual test proteins for an additional 30 min. To express NgR in E7 retinal ganglion neurons, we infected the explants with recombinant HSV for 24 hr. After incubation with each test protein for 30 min, retinal explants were fixed in 4% paraformaldehyde and 15% sucrose. Infection of HSV-LacZ was detected by a standard b-galatosidase staining protocol^20. FLAG-NgR expression was detected by incubating paraformaldehyde-fixed cultures with M2 anti-FLAG antibody (Sigma). Bound antibody was detected by incubation with AP-conjugated […] IgG second antibody and reaction with NBT and BCIP (Vector labs). Growth cone collapse was quantified only in those positively stained for b-galatosidase or immunoreactive for the FLAG epitope.
# Nogo receptor (NgR) [4] = molecular target: T1, Nogo receptor (NgR); experiment: Cell surface binding of AP fusion proteins to NgR-expressing cells (saturation analysis); settings: CHO cell line stably expressing NgR; read-out: binding affinity of expressed NgR for AP-OM
# Experimental: To investigate the mechanisms by which OMgp inhibits neurite outgrowth, we used an expression cloning strategy^9,13,16 to identify cell surface OMgp-binding proteins. […] From pools of an adult human brain cDNA expression library, we isolated two cDNAs that encoded OMgp-binding proteins. […] We then established a CHO cell line stably expressing the NgR and determined the binding affinity of expressed NgR for AP-OM as 5 nM, similar to what had been determined for Nogo-66 (7 nM, ref. 9). […] We next performed co-precipitation experiments by incubating GST or a GST fusion protein containing the entire extracellular domain of NgR (GST-NgR) with OM-his alone or in the presence of AP or AP-66 protein. […] We next determined which domain(s) of OMgp was responsible for binding to NgR. Like NgR, OMgp is also a GPI-linked protein containing a leucine-rich repeat (LRR) domain. […]
# Cell surface binding and expression cloning were performed as described previously^4,13,17. […] After extensive washing and heat inactivation, the bound proteins were detected by AP staining using nitro blue tetrazolium (NBT) and 5-bromo-4-chloro-3-indoyl phosphate (BCIP) as substrate. For saturation analysis, we disrupted cells and detected bound AP fusion proteins using r-nitrophenyl phosphate as substrate. […]
Kd (Nogo receptor (NgR) [4]) [nM],Molecule,growth cone collapse response in NgR-expressing neurons [1],Kd (Nogo receptor (NgR) [2]) [nM],growth cone collapsing activity after PI-PLC treatment of the neurons ([3]; PI-PLC pre-incubation),growth cone collapsing activity [3]
–,"Nogo-66: 66 amino acid extracellular domain of Nogo-A (protein, left off: large carriers, 66 amino acid extracellular domain of Nogo-A) RIYKGVIQAIQKSDEGHPFRAYLESEVAISEELVQKYSNSALGHVNCTIKELRRLFLVDDLVDSLK",conferred a growth cone collapse response,7,insensitive,–
5,"AP-OM: alkaline phosphatase fusion protein containing mouse OMgp, polyhistidine and myc tagged (protein, left off: large carriers; small tags and cut ends, alkaline phosphatase fusion protein containing mouse OMgp, polyhistidine and myc tagged) ICPLQCTCTERHRHVDCSGRNLTTLPPGLQENIIHLNLSYNHFTDLHNQLTPYTNLRTLDISNNRLESLPAQLPRSLWNMSAANNNIKLLDKSDTAYQWNLKYLDVSKNMLEKVVLIKNTLRSLEVLNLSSNKLWTVPTNMPSKLHIVDLSNNSLTQILPGTLINLTNLTHLYLHNNKFTFIPEQSFDQLLQLQEITLHNNRWSCDHKQNITYLLKWVMETKAHVIGTPCSKQVSSLKEQSMYPTPPGFTSSLFTMSEMQTVDTINSLSMVTQPKVTKTPKQYRGKETTFGVTLSKDTTFSSTDRAVVAYPEDTPTEMTNSHEAAAATLTIHLQDGMSSNASLTSATKSPPSPVTLSIARGMPNNFSEMPRQSTTLNLRREETTANGNTRPPS",–,–,–,induce collapse
